Results taken from patent publication US20230357364A1 (INTERNATIONAL AIDS VACCINE INITIATIVE, published 2023).
Read-outs that look alike come from different tables or passages of the source.

Tests used:
SARS-CoV-2 RBD (RBD-2) [1] = target: SARS-CoV-2 RBD (RBD-2) (SARS-CoV-2); test: SPR
[2] = target: T1, SARS-CoV-2 spike on pseudovirus or live virus (USA-WA1/2020, WT) (SARS-CoV-2, UniProt P0DTC2 14-1273); test: cell-based or functional assay
[3] = target: T2, SARS-CoV-1 spike on pseudovirus (SARS-CoV-1, UniProt P59594 14-1255); test: cell-based or functional assay
[4] = target: T1, SARS-CoV-2 spike on pseudovirus or live …; test: cell-based or functional assay; remark: listed apart in the source
SARS-CoV-1 RBD (RBD-1) = SARS-CoV-1 RBD (RBD-1) (SARS-CoV-1); test: ELISA
[5] = target: T1, SARS-CoV-2 spike on pseudovirus or live …; test: cell-based or functional assay; remark: listed apart in the source
[6] = target: T2, SARS-CoV-1 spike on pseudovirus; test: cell-based or functional assay; remark: listed apart in the source
[7] = target: T1, SARS-CoV-2 spike on pseudovirus or live …; test: cell-based or functional assay; remark: listed apart in the source
SARS-CoV-2 RBD (RBD-2) [8] = target: SARS-CoV-2 RBD (RBD-2) (SARS-CoV-2); test: ELISA
SARS-CoV-2 RBD (RBD-2) [9] = target: SARS-CoV-2 RBD (RBD-2) (SARS-CoV-2); test: flow, HeLa-ACE2, mAb:RBD=4:1
[10] = target: T1, SARS-CoV-2 spike on pseudovirus or live …; test: cell-based or functional assay; remark: listed apart in the source
[11] = target: T2, SARS-CoV-1 spike on pseudovirus; test: cell-based or functional assay; remark: listed apart in the source
SARS-CoV-2 RBD (RBD-2) [12] = target: SARS-CoV-2 RBD (RBD-2) (SARS-CoV-2); test: SPR, Fc-captured IgG
[13] = target: T3, SARS-CoV-2 RBD (residue 332-527) (SARS-CoV-2, UniProt P0DTC2 332-527); test: ELISA on truncated S constructs
T3 construct: range 332-527

SARS-CoV-2 RBD (RBD-2) [14] = target: SARS-CoV-2 RBD (RBD-2) (SARS-CoV-2); test: flow, HeLa-ACE2, mAb:RBD=2:1
human insulin = human insulin (human, UniProt P01308 25-54; P01308 90-110); test: polyreactivity ELISA
human insulin, sequence (P01308 25-54 limits assumed, chain 1 of 2): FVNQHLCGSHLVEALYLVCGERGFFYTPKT
human insulin, sequence (P01308 90-110 limits assumed, chain 2 of 2): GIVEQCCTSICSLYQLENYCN

Binder | Maximum Plateau of Neutralization [2] [%] | PSV neutralization IC50 [2] [µg/mL] | PSV neutralization IC50 [3] [µg/mL] | neutralization IC50 [4] [µg/mL] | EC50 (SARS-CoV-1 RBD (RBD-1)) [µg/mL] | EC50 (SARS-CoV-2 RBD (RBD-2) [8]) [µg/mL] | % inhibition of RBD binding to hACE2 (SARS-CoV-2 RBD (RBD-2) [9]) [%] | MFI (RBD binding to cell surface) (SARS-CoV-2 RBD (RBD-2) [9]) | PSV neutralization IC50 [10] [µg/mL] | PSV neutralization IC50 [11] [µg/mL] | Kd (SARS-CoV-2 RBD (RBD-2) [12]) [nM] | koff (SARS-CoV-2 RBD (RBD-2) [12]) [s⁻¹] | kon (SARS-CoV-2 RBD (RBD-2) [12]) [M⁻¹ s⁻¹] | % inhibition of RBD binding to hACE2 (SARS-CoV-2 RBD (RBD-2) [14]) [%] | MFI (RBD binding to cell surface) (SARS-CoV-2 RBD (RBD-2) [14]) | further results
L6.dP04A03 (antibody, V domains shown) VH: QVQLVQSGAEVKKPGSSVKVSCKASGGTFSSSAISWVRQAPGQGLEWMGGIIPILDITNYAQKFQGRVTITADKSTSTAFMELSSLRSEDTAVYYCALRNQWDLLVYWGQGTLVTVSS VL: not shown | 100 | 0.039 | 0.162 | 0.168 | 0.915 | – | – | – | – | – | – | – | – | – | – | Kd (SARS-CoV-2 RBD (RBD-2) [1]): 257 nM
L6.P4A3.1 (antibody, V domains shown) VH: QVQLVQSGAEVKKPGSSVKVSCKASGGIFSSSAISWVRQAPGQGLEWMGGIIPILDISNYAQKFQGRVTITADKSTSTAFMELSSLRSEDTAVYYCALTNQWDLLVYWGQGTLVTVSS VL: EIVLTQSPGTLSLSPGERATLSCRASQRVSSSYLAWYQQKPGQAPRLLIYGAESRATGIPDRFSGSGSGTDFTLTISRLEPEDFAVYYCQHYGSSLWTFGQGTKLEIK | – | – | – | – | – | – | – | – | – | – | – | – | – | – | – | PSV in HeLa-ACE2 cells IC50 [5]: 0.005 µg/mL; live virus IC50 (HeLa-ACE2) [5]: 0.008 µg/mL; live virus IC50 (Vero) [5]: 0.001 µg/mL; PSV in HeLa-ACE2 cells IC50 [6]: 0.049 µg/mL
L6.dP04E05 (antibody, V domains shown, human IgG1) VH: EVQLVESGGGLVQPGRSLRLSCAASGFTFDDYAMHWVRQAPGKGLEWVSGISWNSDNIGYADSVKGRFTVSRDNAKNSLYLQMNSLRAEDTALYYCTKDIHRKNDYYDILTGYYRVRYYYYAMDVWGQGTTVTVSS VL: QSVLTQPPSASGSPGQSVTISCTGTSSDAGGYNYVSWYQQHPGKAPKLMIYEVIKRPSGVPDRFSGSKSGNTASLTVSGLQAEDEADYYCSSFAGTSVVFGGGTKLTVL | – | – | – | 0.00036 | > 10 | 0.018 | – | – | – | – | – | – | – | – | – | fold more potent than L12.bP11A6 [7]: ~50 fold; PSV in HeLa-ACE2 cells IC50 [5]: 0.006 µg/mL; live virus IC50 (HeLa-ACE2) [5]: 0.003 µg/mL; live virus IC50 (Vero) [5]: 0.006 µg/mL; PSV in HeLa-ACE2 cells IC50 [6]: > 25 µg/mL
L6.dP03H10 (antibody, V domains shown) VH: QVQLVQSGAEVKKPGSSVKVSCKASGGTFSIYAITWVRQAPGQGLEWMGGIIPIIGTANYAQKFQGRVTITADKSTSTAYMELSSLRSEDTAVYYCARDFRYCSSTRCYFWFDPWGQGTLVTVSS VL: DIQMTQSPSSLSASVGDRVTITCRASQNISSYLNWYQQEAGKAPKLLIYAASSLQSGVPSRFSGSGSGTDFTLTISSLQPEDFATYYCQQSYSTPRTFGQGTKVDIK | 100 | 0.001 | > 50 | 0.0017 | > 50 | 0.012 | – | – | – | – | – | – | – | – | – | Kd (SARS-CoV-2 RBD (RBD-2) [1]): 5.9 nM
L6.dP02E05 (antibody, V domains shown, human IgG1) VH: QVQLVQSGSELKKPGASVKVSCKASGYTFATYALNWVRQAPGQGLEWMGWVNTNTGSPTYAQGFTGRFVFSFDTSVSTAYLQIRTLKAEDTAVYYCAVYYYDSGSPGWFDPWGQGTLVTVSS VL: DIQLTQSPSSLSASVGDRVTITCRASQTASSYLNWYQQKPGKAPNLLIYAASSLQSGVPSRFSGSGSVTDFTLTISSLQPEDFATYYCQQSYSTPPTFGQGTKVDIK | 100 | 0.002 | > 50 | 0.0075 | > 50 | 0.015 | – | – | – | – | – | – | – | – | – | –
L12.cP08D07 (antibody, V domains shown, human IgG1) VH: QVQLQESGPGLVKPSETLSLTCTVSGGSISSSSYYWGWIRQPPGKGLEWIGSIYYSGSTYYNPSLKSRVTISVDTSKNQFSLKLSSVTAADTAVYYCARQGDCSTTSCAYDYWGQGTLVTVSS VL: SYELTQPPSVSVSPGQTARITCSGDALPKQYAYWYQQKPGQAPVLVIYKDSERPSGIPERFSGSSSGTTATLTISGVQAEDEADYYCQSADSSGTYLVVFGGGTKLAVL | 64 | 21.9 | > 50 | – | > 50 | > 50 | -3.9 | 11600 | 1.81 | > 50 | 26.8 | 0.017 | 636000 | 3 | 10800 | binding result [13]: no binding
L12.cP08D10 (antibody, V domains shown, human IgG1) VH: EVQLVQSGAEVKKPGASVKVSCKASGYIFSGYYMHWVRQAPGQGLEWMGWISPDSGGTNYAQNFQGRVTMTRDTSISTGYMELSRLRSDDTAMYYCARGPRYSGTYFDYWGQGVLVTVSS VL: QSVLTQPASVSGSPGQSITISCTGTSSDVGGYNYVSWYQQHPGKVPKLMIYDVSNRPSGVSNRFSGSKSGNTASLTISGLQAEDEADYYCSSYTSSSAQVFGGGTKLTVL | 60 | 23.5 | > 50 | – | > 50 | > 50 | 13.2 | 9710 | 4.3 | > 50 | > 500 | 0.312 | 59400 | 6.1 | 10500 | –
L12.bP11A11 (antibody, V domains shown, human IgG1) VH: QVQLVQSGAEVKKPGASVKVSCKASGYTFTGYYMHWVRQAPGQGLEWMGWISPNSGGTNYAQKFQGWVTMTRDTSVSTAYMELSRLRFDDTAVYYCATESWVYGSGSYSSGAFDIWGQGTMVTVSS VL: QSVLTQPPSASGSPGQSVTISCTGTSSDVGGYDYVSWYQQHPGKAPKLMIYEVSKRPSGVPDRFSGSKSGNTASLTVPGLQAEDEADYYCTSYAGSNNFVFGGGTKLIVL | 100 | 0.11 | > 50 | – | > 50 | 1.9 | 53.9 | 5190 | 0.016 | > 50 | 170 | 0.066 | 388000 | 43.6 | 6330 | –
L12.cP09D05 (antibody, V domains shown, human IgG1) VH: QVQLVESGGGLVKPGGSLRLSCAASGFTFNYYSMNWVRQAPGKGLEWISSISTSSSFVYYADSVKGRFTISRDNAKTSLYLQMNSLRAEDTAVYFCARGGYCSDGSCYVQDRLIYYYSGLDVWGQGTTVTVSS VL: not shown | 100 | 0.023 | > 50 | – | > 50 | 0.039 | 80.6 | 2230 | 0.008 | > 50 | 36.2 | 0.0157 | 435000 | 75.4 | 2810 | –
L12.bP11G07 (antibody, V domains shown, human IgG1) VH: QVQLVESGGGLIQPGGSLRLSCAASGFTVSSNYMSWVRQAPGKGLEWVSVIYSGGSTFYADSVKGRFTISRDNSKSTLYLQMNSLRVEDTAVYYCARDFGDFYFDYWGQGTLVTVSS VL: not shown | 100 | 0.018 | > 50 | – | > 50 | 0.025 | 91.9 | 982 | 0.013 | > 50 | 8.59 | 0.00342 | 399000 | 86.8 | 1550 | –
L6.P4A3.10 (antibody, V domains shown) VH: QVQLVQSGAEVKKPGSSVKVSCKAPGGTFSSSAISWVRQAPGQGLEWMGGIIPILDITHYAQKFQGRVTITADKSTSTAFMELSSLRSEDTAVYYCALRNQWDLLVYWGQGTLVTVSS VL: EIVLTQSPGTLSLSPGERATLSCRASQSVSSSYLAWYQQKPGQAPRLLIYGAESRATGIPDRFSGSGSGTDFTLTISRLEPEDFAVYYCQHYGSSVWTFGQGTKLEIK | – | – | – | – | – | – | – | – | – | – | – | – | – | – | – | binding result (human insulin): no binding
